Experimental findings from patent US20200010567A1 (NEURIMMUNE, published 2020) are described below.

The target in one experiment is T1, GR10: H-(GR)10HHHHHH-NH2 (C-terminal amide).
T1 peptide: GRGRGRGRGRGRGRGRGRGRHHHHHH
The experiment is described as follows: indirect ELISA, His-tagged peptide coated at 50 ug/ml, antibody titrated. Here is the method: (§1) 96-well microplates (Corning Incorporated, Corning, USA) were coated with dipeptide repeat protein peptides at a concentration of 50 μg/ml in coating buffer (15 mM Na₂CO₃, 35 mM NaHCO₃, pH 9.42). Non-specific binding sites were blocked for 1 h at room temperature with PBS/0.1% Tween®-20 containing 2% BSA (Sigma-Aldrich, Buchs, Switzerland). Primary antibodies were diluted to the indicated concentrations and incubated 1 h at room temperature, followed by incubation with a donkey anti-human IgG Fcγ-specific antibody conjugated with HRP (Jackson ImmunoResearch Laboratories, Inc., West Grove, USA). Binding was determined by measurement of HRP activity in a standard colorimetric assay. EC₅₀ values were estimated by non-linear regression using GraphPad Prism software (San Diego, USA).
(§2) High affinity binding was detected for poly-GA DPRs harboring 10 or 20 (GA)-repeats, reflected in an EC₅₀ in the subnanomolar or low nanomolar range (FIGS. 7A, 7C-7I).
In general terms: ELISA stands for enzyme-linked immunosorbent assay.

In the next experiment the target is T2, GA10: H-(GA)10HHHHHH-NH2 (C-terminal amide).
T2 peptide: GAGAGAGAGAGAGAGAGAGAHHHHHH
Kind of experiment: indirect ELISA, His-tagged peptide coated at 50 ug/ml, antibody titrated [also D00024 FIG. 7F]. The text has this:
(§3) In brief, dipeptide repeat proteins were synthesized and purified by Schafer-N (Copenhagen, Denmark): GA₂₀: H-(GA)₂₀HHHHHH-NH₂; GA₁₀: H-(GA)₁₀HHHHHH-NH₂; GA₆: H-(GA)₆HHHHHH-NH₂; GA₅: H-(GA)₅HHHHHH-NH₂; GA₄: H-(GA)₄HHHHHH-NH₂; GA₃: H-(GA)₃HHHHHH-NH₂; GA₂: H-(GA)₂HHHHHH-NH₂; GP₂₀: H-(GP)₂₀HHHHHH-NH₂; GP₁₀: H-(GP)₁₀HHHHHH-NH₂; GP₆: H-(GP)₆HHHHHH-NH₂; GP₅: H-(GP)₅HHHHHH-NH₂; GP₄: H-(GP)₄HHHHHH-NH₂; GP₃: H-(GP)₃HHHHHH-NH₂; GP₂: H-(GP)₂HHHHHH-NH₂. GR₂₀: H-(GR)₂₀HHHHHH-NH₂; GR₁₀: H-(GR)₁₀HHHHHH-NH₂; GR₆: H-(GR)₆HHHHHH-NH₂; GR₅: H-(GR)₅HHHHHH-NH₂; GR₄: H-(GR)₄HHHHHH-NH₂; GR₃: H-(GR)₃HHHHHH-NH₂; GR₂: H-(GR)₂HHHHHH-NH₂; PA₂₀: H-(PA)₂₀HHHHHH-NH₂; PA₁₀: H-(PA)₁₀HHHHHH-NH₂; PA₆: H-(PA)₆HHHHHH-NH₂; PA₅: H-(PA)₅HHHHHH-NH₂; PA₄: H-(PA)₄HHHHHH-NH₂; PA₃: H-(PA)₃HHHHHH-NH₂; PA₂: H-(PA)₂HHHHHH-NH₂; PR₂₀: H-(PR)₂₀HHHHHH-NH₂; PR₁₀: H-(PR)₁₀HHHHHH-NH₂; PR₆: H-(PR)₆HHHHHH-NH₂; PR₅: H-(PR)₅HHHHHH-NH₂; PR₄: H-(PR)₄HHHHHH-NH₂; PR₃: H-(PR)₃HHHHHH-NH₂; PR₂: H-(PR)₂HHHHHH-NH₂. 96-well microplates (Corning Incorporated, Corning, USA) were coated with dipeptide repeat protein peptides at a concentration of 50 μg/ml in coating buffer (15 mM Na₂CO₃, 35 mM NaHCO₃, pH 9.42). Non-specific binding sites were blocked for 1 h at room temperature with PBS/0.1% Tween®-20 containing 2% BSA (Sigma-Aldrich, Buchs, Switzerland). Primary antibodies were diluted to the indicated concentrations and incubated 1 h at room temperature, followed by incubation with a donkey anti-human IgG Fcγ-specific antibody conjugated with HRP (Jackson ImmunoResearch Laboratories, Inc., West Grove, USA). Binding was determined by measurement of HRP activity in a standard colorimetric assay. EC₅₀ values were estimated by non-linear regression using GraphPad Prism software (San Diego, USA).

The next experiment concerns the target T3, GA3: H-(GA)3HHHHHH-NH2.
T3 peptide: H-GAGAGAHHHHHH-NH2
Described as above.
Source text: as §3

For a further experiment, the target named is T4, GA2: H-(GA)2HHHHHH-NH2.
T4 peptide: H-GAGAHHHHHH-NH2
The description is as above.
Source text: as §3

The target in another experiment is T5, GA4: H-(GA)4HHHHHH-NH2.
T5 peptide: H-GAGAGAGAHHHHHH-NH2
The experiment is described as above.
Source text: as §3

A further experiment deals with T6, GP3: H-(GP)3HHHHHH-NH2.
T6 peptide: H-GPGPGPHHHHHH-NH2
The experiment is described as follows: indirect ELISA, His-tagged peptide coated at 50 ug/ml, antibody titrated [also D00026 FIG. 7J].
Source text: as §3

The target of a further experiment is T7, GP4: H-(GP)4HHHHHH-NH2.
T7 peptide: H-GPGPGPGPHHHHHH-NH2
The experiment is described as above.
Source text: as §3

For another experiment, the target named is T8, GP2: H-(GP)2HHHHHH-NH2.
T8 peptide: H-GPGPHHHHHH-NH2
The experiment is described as above.
Source text: as §3

A further experiment addresses T9, PR3: H-(PR)3HHHHHH-NH2.
T9 peptide: H-PRPRPRHHHHHH-NH2
The experiment is described as follows: indirect ELISA, His-tagged peptide coated at 50 ug/ml, antibody titrated [also D00027 FIG. 7O]. Here is the method: as §1, §2

Another experiment addresses T10, PR4: H-(PR)4HHHHHH-NH2.
T10 peptide: H-PRPRPRPRHHHHHH-NH2
The description is as above. The procedure: as §1, §2

In a further experiment the target is T11, PR2: H-(PR)2HHHHHH-NH2.
T11 peptide: H-PRPRHHHHHH-NH2
The description is as above. The procedure: as §1, §2

The next experiment addresses T12, PR5: H-(PR)5HHHHHH-NH2.
T12 peptide: H-PRPRPRPRPRHHHHHH-NH2
The description is as above. The procedure: as §1, §2

B1: NI-308.6B11 (antibody, V domains shown)
VH: EVQLVQSGAEVKRPGASVKVSCKVSGYTLTELSMHWVRQAPGKGLEWMGGFDPEDGETVYAQKFQGRVTMTEDTSTDTAYMELSSLRSEDTALYHCATYGSSWHWNEGNEGSYYFDYWGQGTLVTVSS
VL: CDIQMTQSPSSLSASVGDRVTITCQASQDISIYLNWYQQKPGKAPKLLIYDASNLETGVPSRFSGSGSGTDFTFTISGLQPEDVARYYCQQYDDLPITFGQGTRLEIK
notes: Recombinant complete human IgG1, kappa
Consider B1, for which the EC50 with GR10: H-(GR)10HHHHHH-NH2 was 1.28 nM.

B2: NI-308.15O7 (antibody, V domains shown)
VH: QVQLVESGGGVVQPGRSLRLSCAASGFTFSNHAMHWVRQAPGKGLEWVAVISYDGENTYYADSIEGRFTISRDNFKNTLFLQMYSLTADDTAMYFCARGGRRGHFTSYYLDYWGQGTLVTVSS
VL: CDIQMTQSPSSLSASVGDRVTITCRASQNIDKYLNWYQQIPGKAPKLLIYAASSLHSGVPSRFSGSGSGTDFSLTISSLQPEDFAIYYCQQSYSSFRTFGQGTKLEIK
On to B2, for which the EC50 in the experiment with GA10: H-(GA)10HHHHHH-NH2 was found to be 0.37 nM. Besides, the binding result with GA3: H-(GA)3HHHHHH-NH2, in the experiment with GA2: H-(GA)2HHHHHH-NH2 and with GA4: H-(GA)4HHHHHH-NH2 was “no binding (tested: about 4x10^5 pM (last point))” each time.

B3: NI-308.5G2 (antibody, V domains shown)
VH: EVQLVQSGADLRNPGASVTVSCTASGYHFADNAINWLRQAPGQRLEWMGWINIYSGNTKYSQNFQGRVTFTRNTSASTAFMHLRSLRSEDTAVYFCARDPDSSGYYLPYFDYWGQGTLVTVSS
VL: DIQLTQSPDSLTLSLGERATINCKSSQSVFYNSNNKNYLAWYQQKPGQPPKLLMYWASTRESGVTDRFSGSGSGTDFTLTITNLQAEDVAVYYCQQFYSSPLTFGGGTKVEIK
notes: as for B1
Consider B3, for which the binding result in the experiment with GP3: H-(GP)3HHHHHH-NH2, in the experiment with GP4: H-(GP)4HHHHHH-NH2 and with GP2: H-(GP)2HHHHHH-NH2 was “no binding (tested: about 4x10^5 pM (last point))” each time.

B4: NI-308.24E11 (antibody, V domains shown)
VH: QVQLQESGPGLVKPSETLSLTCTVSTTSLRSYFWSWIRQPPGKGLEWIGYVYYSGSTIYNPSLKNRVTISIDTSKNQFSLNLRSVTAADTAMYFCARGVPAETDARDFPPYYFDHWGQGTLVTVSS
VL: CDIQLTQSPSSLSASVGNRITFTCQASQDIRYYLNWYQQKPGKAPKLLIYDVSNLDTGVPPRFSGSGSGTNFTFTISSLQPEDIAVYYCQQYEGLPVTFGGGTKVEIK
notes: as for B1
With B4, the binding result with PR3: H-(PR)3HHHHHH-NH2, with PR4: H-(PR)4HHHHHH-NH2, with PR2: H-(PR)2HHHHHH-NH2 and in the experiment with PR5: H-(PR)5HHHHHH-NH2 was “no binding (tested: about 4x10^5 pM (last point))” in each case.

What is called EC50 is the concentration at which the effect is half-maximal.
